Measured values taken from the supplement of paper PMC6757056.
± gives the standard deviation of the averaged measurements.

B1: library; a variant is named by its letters at N, in order (parent)
chain: GCUGUCACCGGAAUACCAGCAUCGUCUUGAUGCCCUUGGAAGUCCGGUCUGAUGAGUCCNNNNNGGACGAAACAGC

Legend:
theophylline [1] = variants of: B1; test: FACS-Seq fitted mean relative fluorescence mCherry/BFP without ligand (log10 relative fluorescence); higher = higher reporter protein expression; conditions: HEK293T, ligand present: no
Method in brief: (§1)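 Fluorescence is reported as a normalized fitted mean of sorted-bin read counts. Lentivirally transduced HEK293T libraries (mCherry ribozyme-switch reporter, EF1α-BFP marker) were enriched, treated with or without ligand for 48 h, and sorted into 6 mCherry/BFP bins for MiSeq sequencing of PCR-amplified genomic DNA. The normal fit was on log10(mCherry/BFP), scaled to five spiked-in control ribozymes.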

theophylline [2] = variants of: B1; test: normalized RNA/DNA level with ligand (relative to sTRSVctl = 100) (log10 (% of sTRSVctl)); higher = less ribozyme self-cleavage, higher mRNA level; conditions: ligand concentration (+) RNA-Seq: 5 mM, HEK293T, reporter: mCherry (pCS4076), ligand present: yes
Method in brief: (§2)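 Ribozyme switch library plasmids linked to reporters were introduced into HEK293T cells at 4 µg per 6-well well, with ligand, if any, added 1 h before. Total RNA was extracted with EDTA 72 h later, reverse-transcribed, amplified, barcoded and sequenced. RNA level was computed from RNA over DNA reads relative to a spiked-in non-cleaving sequence or the top sequences, then scaled and log-transformed. The top set was 25 sequences, values were ×100 and log10, and the cutoff was ≥100 DNA reads.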

theophylline [3] = variants of: B1; test: normalized RNA/DNA level without ligand (relative to sTRSVctl = 100) (log10 (% of sTRSVctl)); higher = less ribozyme self-cleavage, higher mRNA level; conditions: HEK293T, reporter: mCherry (pCS4076), ligand present: no
Method in brief: as §2

theophylline [4] = variants of: B1; test: FACS-Seq fitted mean relative fluorescence mCherry/BFP with ligand (log10 relative fluorescence); ligand concentration (+) FACS-Seq: 1 mM; higher = higher reporter protein expression; conditions: HEK293T, ligand present: yes
Method in brief: as §1

Variant: AUACU
- FACS-Seq fitted mean (log10) (theophylline [1]): 0.617 ± 0.06
- normalized RNA/DNA level with ligand (log10) (theophylline [2]): 2.02 ± 0.038
- normalized RNA/DNA level without ligand (log10) (theophylline [3]): 1.79 ± 0.033
- FACS-Seq fitted mean (log10) (theophylline [4]): 0.713 ± 0.032

Variant: AUACG
- FACS-Seq fitted mean (log10) (theophylline [1]): 0.526 ± 0.063
- normalized RNA/DNA level with ligand (log10) (theophylline [2]): 2.0061 ± 0.0018
- normalized RNA/DNA level without ligand (log10) (theophylline [3]): 1.831 ± 0.0082
- FACS-Seq fitted mean (log10) (theophylline [4]): 0.507 ± 0.02

Variant: AUUCA
- FACS-Seq fitted mean (log10) (theophylline [1]): 0.9176 ± 0.0013
- normalized RNA/DNA level with ligand (log10) (theophylline [2]): 2.04 ± 0.066
- normalized RNA/DNA level without ligand (log10) (theophylline [3]): 1.83 ± 0.15
- FACS-Seq fitted mean (log10) (theophylline [4]): 0.971 ± 0.12

Variant: AUUCC
- FACS-Seq fitted mean (log10) (theophylline [1]): 0.959 ± 0.011
- normalized RNA/DNA level with ligand (log10) (theophylline [2]): 1.99 ± 0.1
- normalized RNA/DNA level without ligand (log10) (theophylline [3]): 1.95 ± 0.072
- FACS-Seq fitted mean (log10) (theophylline [4]): 0.909 ± 0.08

Variant: UUGUC
- FACS-Seq fitted mean (log10) (theophylline [1]): 0.132 ± 0.031
- normalized RNA/DNA level with ligand (log10) (theophylline [2]): 1.99 ± 0.027
- normalized RNA/DNA level without ligand (log10) (theophylline [3]): 2.01 ± 0.063
- FACS-Seq fitted mean (log10) (theophylline [4]): 0.305 ± 0.035

Variant: UUGUG
- FACS-Seq fitted mean (log10) (theophylline [1]): 0.172 ± 0.13
- normalized RNA/DNA level with ligand (log10) (theophylline [2]): 1.96 ± 0.09
- normalized RNA/DNA level without ligand (log10) (theophylline [3]): 1.868 ± 0.014
- FACS-Seq fitted mean (log10) (theophylline [4]): 0.266 ± 0.051

Variant: UUGUA
- FACS-Seq fitted mean (log10) (theophylline [1]): 0.431 ± 0.12
- normalized RNA/DNA level with ligand (log10) (theophylline [2]): 1.88 ± 0.029
- normalized RNA/DNA level without ligand (log10) (theophylline [3]): 1.53 ± 0.21
- FACS-Seq fitted mean (log10) (theophylline [4]): 0.555 ± 0.051

Variant: AUGCC
- FACS-Seq fitted mean (log10) (theophylline [1]): 0.828 ± 0.054
- normalized RNA/DNA level with ligand (log10) (theophylline [2]): 2 ± 0.033
- normalized RNA/DNA level without ligand (log10) (theophylline [3]): 1.96 ± 0.071
- FACS-Seq fitted mean (log10) (theophylline [4]): 0.852 ± 0.022

Variant: AUGCA
- FACS-Seq fitted mean (log10) (theophylline [1]): 0.792 ± 0.023
- normalized RNA/DNA level with ligand (log10) (theophylline [2]): 2.023 ± 0.014
- normalized RNA/DNA level without ligand (log10) (theophylline [3]): 1.841 ± 0.0049
- FACS-Seq fitted mean (log10) (theophylline [4]): 0.96 ± 0.14

Variant: AUGCG
- FACS-Seq fitted mean (log10) (theophylline [1]): 0.848 ± 0.14
- normalized RNA/DNA level with ligand (log10) (theophylline [2]): 1.99 ± 0.11
- normalized RNA/DNA level without ligand (log10) (theophylline [3]): 1.87 ± 0.06
- FACS-Seq fitted mean (log10) (theophylline [4]): 0.986 ± 0.1

Variant: GUACU
- FACS-Seq fitted mean (log10) (theophylline [1]): 0.8686 ± 0.0017
- normalized RNA/DNA level with ligand (log10) (theophylline [2]): 2 ± 0.044
- normalized RNA/DNA level without ligand (log10) (theophylline [3]): 1.93 ± 0.08
- FACS-Seq fitted mean (log10) (theophylline [4]): 0.97 ± 0.03

Variant: UUGCU
- FACS-Seq fitted mean (log10) (theophylline [1]): 0.987 ± 0.11
- normalized RNA/DNA level with ligand (log10) (theophylline [2]): 1.94 ± 0.083
- normalized RNA/DNA level without ligand (log10) (theophylline [3]): 1.91 ± 0.03
- FACS-Seq fitted mean (log10) (theophylline [4]): 0.922 ± 0.042

Variant: UUGCC
- FACS-Seq fitted mean (log10) (theophylline [1]): 0.794 ± 0.064
- normalized RNA/DNA level with ligand (log10) (theophylline [2]): 1.99 ± 0.067
- normalized RNA/DNA level without ligand (log10) (theophylline [3]): 1.95 ± 0.021
- FACS-Seq fitted mean (log10) (theophylline [4]): 0.78 ± 0.06

Variant: UUGCG
- FACS-Seq fitted mean (log10) (theophylline [1]): 1.18 ± 0.2
- normalized RNA/DNA level with ligand (log10) (theophylline [2]): 1.95 ± 0.094
- normalized RNA/DNA level without ligand (log10) (theophylline [3]): 1.82 ± 0.08
- FACS-Seq fitted mean (log10) (theophylline [4]): 1.12 ± 0.074

Variant: CUUCC
- FACS-Seq fitted mean (log10) (theophylline [1]): 0.782 ± 0.05
- normalized RNA/DNA level with ligand (log10) (theophylline [2]): 2.02 ± 0.059
- normalized RNA/DNA level without ligand (log10) (theophylline [3]): 2.032 ± 0.0046
- FACS-Seq fitted mean (log10) (theophylline [4]): 0.683 ± 0.091

Variant: UUUGU
- FACS-Seq fitted mean (log10) (theophylline [1]): 0.965 ± 0.067
- normalized RNA/DNA level with ligand (log10) (theophylline [2]): 2.07 ± 0.082
- normalized RNA/DNA level without ligand (log10) (theophylline [3]): 2.02 ± 0.041
- FACS-Seq fitted mean (log10) (theophylline [4]): 0.8623 ± 0.0024

Variant: UUUGA
- FACS-Seq fitted mean (log10) (theophylline [1]): 0.62 ± 0.055
- normalized RNA/DNA level with ligand (log10) (theophylline [2]): 2.09 ± 0.097
- normalized RNA/DNA level without ligand (log10) (theophylline [3]): 1.94 ± 0.021
- FACS-Seq fitted mean (log10) (theophylline [4]): 0.856 ± 0.079

Variant: UUUGC
- normalized RNA/DNA level with ligand (log10) (theophylline [2]): 2.05 ± 0.042
- normalized RNA/DNA level without ligand (log10) (theophylline [3]): 1.93 ± 0.023
